What all share (assay): Luminex bead assay, 1 ug/ml antibody [Cont.]
Test [1] addresses T1, B X NEEMGGITQTPYKVS (reading uncertain).
T1 construct: row 5 of the chart; also called biotinylated 15-mer, residues 4-18
T1 peptide: {Biotin-code X}-NEEMGGITQTPYKVS
How it is done: (§1) A set of experiments was performed to map the epitope recognized by the anti-CD3ε antibodies. In these experiments, the anti-CD3ε antibodies were assessed for binding to a collection of overlapping 15-mer peptides spanning amino acids 1-27 of human CD3ε protein using a Luminex bead assay. Control CD3 proteins, control peptides, or the test peptides were immobilized on Luminex beads and incubated with a panel of anti-CD3 antibodies. Binding of the anti-CD3 antibodies to the peptide/protein immobilized on the Luminex bead was detected by R-Phycoerythrin conjugated secondary antibody.
(§2) Recombinant CD3 proteins (human CD3d/e heterodimer and cynomolgus CD3-epsilon (Sinobiological)) and control peptides (#p1, #p2, and #p3) were conjugated to Luminex beads using standard EDC/Sulfo-NHS chemistry. The 15-mer test peptides were synthesized as biotinylated peptides at JPT Peptide Technologies Gmbh and were immobilized on streptavidin-conjugated Luminex beads that were made using standard EDC/Sulfo-NHS chemistry and streptavidin (Invitrogen Cat. No. 434301 lot 1626028A). The Luminex beads with immobilized peptides or reagents were incubated with 50 ul of a panel of anti-CD3 antibodies (1 ug/ml) for one hour at room temperature, washed two times, incubated with mixture of anti-human and anti-mouse IgG-RPE (Jackson Immunoresearch 109-116-097 and Southern Biotech 1030-09, respectively) for 30 mins at RT, washed three times, and analyzed in the Luminex instrument to assess the level of bound anti-CD3 antibodies.

In test [2] the target is T2, B X QDGNEEMGGIAQTP (reading uncertain).
T2 construct: row 25 of the chart; 14 residues; also called alanine-scan peptide T11A
T2 peptide: {Biotin-code X}-QDGNEEMGGIAQTP
As to the method: as §1, §2

Test [3] concerns the target T3, B X QDGNAEMGGITQTP (reading uncertain).
T3 construct: row 19 of the chart; 14 residues; also called alanine-scan peptide E5A
T3 peptide: {Biotin-code X}-QDGNAEMGGITQTP
As to the method:
as §1, §2

The target of test [4] is T4, B X QDGAEEMGGITQTP (reading uncertain).
T4 construct: row 18 of the chart; 14 residues; also called alanine-scan peptide N4A
T4 peptide: {Biotin-code X}-QDGAEEMGGITQTP
How it is done:
as §1, §2

In test [5] the target is T5, B X QDGNEEMGAITQTP (reading uncertain).
T5 construct: row 23 of the chart; 14 residues; also called alanine-scan peptide G9A
T5 peptide: {Biotin-code X}-QDGNEEMGAITQTP
How it is done:
as §1, §2

Test [6] addresses T6, B X QDGNEEMGGATQTP (reading uncertain).
T6 construct: row 24 of the chart; 14 residues; also called alanine-scan peptide I10A
T6 peptide: {Biotin-code X}-QDGNEEMGGATQTP
As to the method: as §1, §2

For test [7], the target named is T7, B X TQTPYKVSISGTTVI (reading uncertain).
T7 construct: row 12 of the chart; also called biotinylated 15-mer, residues 11-25
T7 peptide: {Biotin-code X}-TQTPYKVSISGTTVI
How it is done: as §1, §2

For test [8], the target named is T8, B X GNEEMGGITQTPYKV (reading uncertain).
T8 construct: row 4 of the chart; also called biotinylated 15-mer, residues 3-17
T8 peptide: {Biotin-code X}-GNEEMGGITQTPYKV
How it is done:
as §1, §2

The target of test [9] is T9, B X ITQTPYKVSISGTTV (reading uncertain).
T9 construct: row 11 of the chart; also called biotinylated 15-mer, residues 10-24
T9 peptide: {Biotin-code X}-ITQTPYKVSISGTTV
How it is done:
as §1, §2

The target in test [10] is T10, B X QTPYKVSISGTTVIL (reading uncertain).
T10 construct: row 13 of the chart; also called biotinylated 15-mer, residues 12-26
T10 peptide: {Biotin-code X}-QTPYKVSISGTTVIL
As to the method: as §1, §2

The target in test [11] is T11, B X TPYKVSISGTTVILT (reading uncertain).
T11 construct: row 14 of the chart; also called biotinylated 15-mer, residues 13-27
T11 peptide: {Biotin-code X}-TPYKVSISGTTVILT
How it is done: as §1, §2

Test [12] concerns the target T12, B X ADGNEEMGGITQTPY (reading uncertain).
T12 construct: row 15 of the chart; also called alanine-scan peptide Q1A
T12 peptide: {Biotin-code X}-ADGNEEMGGITQTPY
How it is done:
as §1, §2

In test [13] the target is T13, biotinylated 15-mer peptide corresponding to the CD3ε N-terminus (human, UniProt P07766 22-36, limits assumed, not fully specified; reading uncertain).
T13 construct: domain: N-terminal 15-mer; Immobilised on streptavidin-conjugated Luminex beads; The text says 'peptides' in the plural, so more than one overlapping N-terminal 15-mer may be meant; also called N-terminal 15-mer; biotinylated N-terminal 15-mer
T13 peptide (looked up): {Biotin-linker}-QDGNEEMGGITQTPY
As to the method: as §1, §2

The target in test [14] is T14, B X QDANEEMGGITQTP (reading uncertain).
T14 construct: row 17 of the chart; 14 residues; also called alanine-scan peptide G3A
T14 peptide: {Biotin-code X}-QDANEEMGGITQTP
As to the method:
as §1, §2

The target of test [15] is T15, B X EEMGGITQTPYKVSI (reading uncertain).
T15 construct: row 6 of the chart; also called biotinylated 15-mer, residues 5-19
T15 peptide: {Biotin-code X}-EEMGGITQTPYKVSI
How it is done: as §1, §2

The target of test [16] is T16, huCD3d/eCHO-E DT1331 (human, UniProt P04234).
T16 construct: recombinant, part of a CD3 delta/epsilon heterodimer; coupled to Luminex beads
T16 sequence (P04234 22-105): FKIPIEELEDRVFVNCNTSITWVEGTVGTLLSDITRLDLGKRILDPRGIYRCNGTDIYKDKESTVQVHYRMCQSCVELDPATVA
As to the method: as §1, §2

The target of test [17] is T17, B X EMGGITQTPYKVSIS (reading uncertain).
T17 construct: row 7 of the chart; also called biotinylated 15-mer, residues 6-20
T17 peptide: {Biotin-code X}-EMGGITQTPYKVSIS
As to the method: as §1, §2

The target in test [18] is T18, B X QDGNEEAGGITQTP (reading uncertain).
T18 construct: row 21 of the chart; 14 residues; also called alanine-scan peptide M7A
T18 peptide: {Biotin-code X}-QDGNEEAGGITQTP
How it is done: as §1, §2

For test [19], the target named is T19, B X QDGNEAMGGITQTP (reading uncertain).
T19 construct: row 20 of the chart; 14 residues; also called alanine-scan peptide E6A
T19 peptide: {Biotin-code X}-QDGNEAMGGITQTP
As to the method:
as §1, §2

No end group written: not given here. *: point of attachment. Biotin = O=C1N[C@H]2[C@H](CS[C@H]2CCCCC(=O)*)N1; code X = not defined here; linker = not defined here

B1: 6d59 (antibody, V domains shown)
VH: QVHLVESGGGVVQPGRSLRLSCAASGFKFRSYGMHWVRQAPGKGLEWVAIIWYDGSKRYYADSVKGRFTISRDNSKNTLYLQMSSLRAEDTAVYYCARDLITGTTDYWGQGTLVTVSS
VL: DVVMTQSPLSLPVTLGQPASISCRSSRSLVYSDGNTHLIWFQQRPGQSPRRLIYRVSNRVSGVPDRFSGSGSGTDFTLKISRVEAEDVGVYYCLQGAHWPYTFGQGTKLEIKR
notes: also called 6d59.1; VCD3-6d59.1
Take B1: the Luminex signal in [1] came to 40.5; in [2], 2910; in [3], 483; in test [4], 48; in test [5], 2660; in test [6], 2630. Also, the Luminex signal in test [7] was found to be 47.5; in test [8] it was 44.5; in [9] it was 29.5; in test [10], 31.5; in test [11], 31; in [12], 11300. In addition, the Luminex signal in [13] is 3160; in test [14] it was 32.5; in [15], 43; in [16], 23200; in [17] it was 44.5; in test [18], 2580. In addition, in test [19], the Luminex signal turned out to be 1480.

Values taken from US20230057263A1 (CYTOMX THERAPEUTICS, published 2023).
